Paper PMC10139187, “Natural Isoforms of Listeria monocytogenes Virulence Factor Inlb Differ in c-Met Binding Efficiency and Differently Affect Uptake and Survival Listeria in Macrophage †” (International Journal of Molecular Sciences, 2023)

B1: idInlBCC9, internalin domain (receptor-binding domain) of InlB, isoform of clonal complex CC9 (lineage II) (domain or fragment)
chain: AKVQAETITVPTPIKQIFSDDAFAETIKDNLKKKSVTDAVTQNELNSIDQIIANNSDIKSVQGIQYLPNVTKLFLNGNKLTDIKPLANLKNLGWLFLDENKVKDLSSLKDLKKLKSLSLEHNGISDINGLVHLPQLESLYLGNNKITDITVLSRLTKLDTLSLEDNQISDIVPLAGLTKLQNLYLSKNHISDLRALAGLKNLDVLELFSQECLNKPINHQSNLVVPNTVKNTDGSLVTPEIISDDGDYEKPNVKWHLPEFTNEVSFIFYQPVTIGKAKARFHGRVTQPLKE
modifications: stained with RED-tris-NTA (on the His tag)
notes: 321 aa long; also called idInlB-His-Tag; source: E. coli BL21, purified (HisTrap FF Crude column, dialysed against PBS)
B2: gC1qR (human) (receptor)
chain: LHTDGDKAFVDFLSDEIKEERKIQKHKTLPKMSGGWELELNGTEAKLVRKVAGEKITVTFNINNSIPPTFDGEEEPSQGQKVEEQEPELTSTPNFVVEVIKNDDGKKALVLDCHYPEDEVGQEDEAESDIFSIREVSFQSTGESEWKDTNYTLNTDSLDWALYDHLMDFLADRGVDNTFADELVELSTALEHQEYITFLEDLKSFVKSQ
notes: gC1qR (receptor of the globular heads of C1q), human; the catalogue number may tell them; also called human gC1qR; source: bought: Invitrogen (#11874H08E25)

Assays:
Assay in all cases: MST; idInlB-His-Tag stained with RED-tris-NTA kept constant at 50 nM; unlabeled receptor in twofold dilutions from 0.076 nM to 2.5 uM; PBST (PBS with 0.05% Tween-20); Monolith NT.115, LED power 80%, MST power 40%; fitted to a 1:1 binding model; mean of three independent experiments
[1] = molecular target: idInlBCC1, internalin domain (receptor-binding domain) of InlB, isoform of clonal complex CC1 (lineage I) (Listeria monocytogenes)
[2] = molecular target: idInlBCC7, internalin domain (receptor-binding domain) of InlB, isoform of clonal complex CC7 (lineage II) (Listeria monocytogenes)
[3] = molecular target: T1, chimeric protein HGFR/Fc (c-Met extracellular domain as part of a soluble chimera protein) (human, UniProt P08581 25-932); conditions: both partners purified
T1 construct: Hepatocyte growth factor receptor (c-Met, HGFR), human, extracellular domain; natural c-Met is cut into an alpha and a beta chain, written here as one chain; also called human c-Met; source: bought: Sigma-Aldrich (H0536)

[4] = molecular target: B1; conditions: both partners purified

T1 sequence (P08581 25-932, change not shown): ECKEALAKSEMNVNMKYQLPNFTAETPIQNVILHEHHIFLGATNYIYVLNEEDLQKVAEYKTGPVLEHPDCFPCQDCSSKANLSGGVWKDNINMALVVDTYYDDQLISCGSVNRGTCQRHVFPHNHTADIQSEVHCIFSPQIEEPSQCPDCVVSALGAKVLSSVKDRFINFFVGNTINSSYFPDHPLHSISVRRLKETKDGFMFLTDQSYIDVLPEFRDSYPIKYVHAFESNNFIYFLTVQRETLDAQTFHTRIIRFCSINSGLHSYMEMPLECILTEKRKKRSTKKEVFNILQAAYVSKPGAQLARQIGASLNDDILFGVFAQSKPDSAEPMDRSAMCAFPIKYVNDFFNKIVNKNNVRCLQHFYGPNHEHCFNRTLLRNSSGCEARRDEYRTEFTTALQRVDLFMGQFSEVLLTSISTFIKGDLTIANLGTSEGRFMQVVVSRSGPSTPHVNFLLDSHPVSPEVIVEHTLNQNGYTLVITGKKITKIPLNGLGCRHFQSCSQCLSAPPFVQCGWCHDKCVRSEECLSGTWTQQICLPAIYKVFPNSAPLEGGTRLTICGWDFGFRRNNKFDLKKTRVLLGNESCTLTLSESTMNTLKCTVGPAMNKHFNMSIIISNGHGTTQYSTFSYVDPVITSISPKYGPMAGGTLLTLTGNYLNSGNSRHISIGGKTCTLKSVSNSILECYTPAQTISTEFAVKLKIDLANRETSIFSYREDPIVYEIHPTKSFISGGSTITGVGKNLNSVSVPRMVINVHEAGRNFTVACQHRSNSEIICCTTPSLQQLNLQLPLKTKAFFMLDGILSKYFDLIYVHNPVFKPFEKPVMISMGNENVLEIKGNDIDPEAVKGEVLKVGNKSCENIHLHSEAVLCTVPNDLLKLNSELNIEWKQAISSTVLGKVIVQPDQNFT

| Molecule | Kd [1] [nM] | Kd [2] [nM] | Kd [3] [nM] | Kd [4] [nM] |
| --- | --- | --- | --- | --- |
| chimeric protein HGFR/Fc (c-Met extracellular domain as part of a soluble chimera protein) (from UniProt P08581 25-932) (Fc fusion) | 7.4 | 58.7 | – | – |
| gC1qR (human) (from UniProt Q07021 74-282) (receptor) | 7.4 | 10.2 | – | – |
| B1 | – | – | 93.6 | – |
| B2 | – | – | – | 21.5 |
